{"source": "paper PMC3747075", "target": "human DNM1L GTPase-GED (GG) fusion protein (human) (UniProt O00429)", "experiment": "SEC; 60 µM protein incubated 30 min at 37°C with 2 mM GDP or GTP, 20 mM NaF and 2 mM AlCl3 (transition state mimic GDP/AlF4-); 20 mM Tris/HCl pH 8.0, 150 mM NaCl, 2 mM EGTA, 4 mM MgCl2, 1 mM DTT; Superdex S 75 HR 10/300; dimer at 9.5 ml, monomer at 11 ml"}
{"substance": "human DNM1L GTPase-GED (GG) fusion protein (from UniProt O00429 1-325) (domain or fragment)", "values": [{"measurement": "stoichiometry N", "value": 2}]}
